# Data published in paper PMC4605309.
# Read-outs that look alike come from different tables or passages of the source.
# Experiments:
# Smad5 MH1 [1] = target: T1, Smad5 MH1 (Mus musculus, UniProt P97454 1-143); test: EMSA
# Smad5 MH1 [2] = target: T1, Smad5 MH1; test: EMSA; remark: listed apart in the source
# T1 sequence (P97454 1-143): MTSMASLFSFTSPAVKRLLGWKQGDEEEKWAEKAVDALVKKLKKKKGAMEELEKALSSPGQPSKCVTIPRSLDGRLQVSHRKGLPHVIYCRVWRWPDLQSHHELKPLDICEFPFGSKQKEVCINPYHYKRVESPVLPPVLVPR
Binder,binding result (Smad5 MH1 [1]),binding result (Smad5 MH1 [2])
Smad7 promoter DNA (dsDNA) DNA 1: CCAGCCAGCCAGCCGGCGCCAC DNA 2: GTGGCGCCGGCTGGCTGGCTGG,binds,–
Id2 promoter DNA (dsDNA) DNA 1: CCTGGCGCCAGAGAGTCTGC DNA 2: GCAGACTCTCTGGCGCCAGG,–,binds
Bambi enhancer DNA (dsDNA) DNA 1: AGTGTCGTCTCGTTGGCGCCGGGTGC DNA 2: GCACCCGGCGCCAACGAGACGACACT,binds,–
